18 molecules from patent US12006368 (SURROZEN OPERATING, dated 2024) can be followed below.

The target in assay [1] is Fzd1 cysteine rich domain (CRD), C-terminally biotinylated (human, UniProt Q9UP38 101-230). In words: BLI. The procedure:
(§1) Binding kinetics of antibody fragments to a variety of Fzd cysteine rich domain (CRD) protein targets (Fzd1, Fzd2, Fzd3, Fzd4, Fzd5, Fzd6, Fzd7, Fzd8, Fzd9 and/or Fzd10 CRDs) was determined by bio-layer interferometry (BLI) using Octet Red 96 (PALL ForteBio, Fremont, CA) instruments at 30° C., 1000 rpm with streptavidin (SA) biosensors. C-terminal biotinylated Fzd CRD recombinant protein was diluted to 20 nM in the running buffer (PBS, 0.05% Tween-20, 0.5% BSA, pH 7.2) and captured to the SA biosensor until coupling length reached 0.2 nm. Following capture of the Fzd CRD, the SA biosensor with captured biotinylated-Fzd CRD was dipped into wells containing the relevant antibody fragment at […] (0, 1.37, 4.12, 12.4, 37, 111.1, 333.3, 1000 nM) in running buffer, plus a well with only running buffer as a reference channel. […] was determined by global fitting, 1:1 binding model according to manufacturer recommended settings.
(§2) Table 1B provides clone IDs, the sequence identifier number of the antibody heavy chain fragment and/or light chain fragment, if present, for illustrative clones. In certain embodiments, the Fzd binding domain is an Fab or was derived from an Fab, so the heavy chain of Table 1B includes VH and CH1 sequence, but not CH2 or CH3 sequences. In certain embodiments, the Fzd binding domain is a VHH or sdAb® or was derived from a VHH or sdAb, so Table 1B includes the VHH domain. […] The Kd values were determined by BLI as described above. Blank entries denote that the binding to the specific Fzd receptor has not yet been determined. The entry of "n.b." indicates no binding.
(In general: In BLI a coated tip is dipped into the sample, and binding shifts an interference pattern.)

For assay [2], the target named is Fzd2 cysteine rich domain (CRD), C-terminally biotinylated (human, UniProt Q14332 24-155). In words: BLI. The procedure:
as §1, §2

Where a chain is given by its changes, count along the chain named.

B1: 014S-G06 (Fab, V domains shown)
VH: EVQLVESGGGLVKPGGSLRLSCAASGFTFSSYAMHWVRQAPGKGLEWVSAIGAGGGTYYADSVKGRFTISRDDSKNTLYLQMNSLKTEDTAVYYCARDAYNWFDPWGQGTLVTVSS
VL: not shown
B1: the binding result in assay [1] and in assay [2] was “no binding (tested: 1000 nM)” throughout.

B2: 014S-G02 (Fab, V domains shown)
VH: QVQLVQSGAEVKKPGASVKVSCKASGYTFTSYYMNWVRQAPGQGLEWMGIISPSGGSTSYAQKFQGRVTMTRDTSTSTVYMELSSLRSEDTAVYYCARWGDYGDLYYFDYWGQGTLVTVSS
VL: DIQMTQSPSSLSASVGDRVTITCRASQGISSALAWYQQKPGKAPKLLIYATSTLQSGVPSRFSGSGSGTDFTLTISSLQPEDFATYYCQQVNSYPPTFGQGTKLEIKR
As for B2, the binding result in assay [1] and in assay [2] was “no binding (tested: 1000 nM)” throughout.

B3: 003S-D10 (Fab, V domains shown)
VH: EVQLVESGGGLVKPGGSLRLSCAASGFNFGIYSMTWVRQAPGKGLEWISYISGDSGYTNYADSVKGRFTISRDDSKNTLYLQMNSLKTEDTAVYYCARVGPGGWFDPWGQGTLVTVSS
VL: B2 VL with A32Y, T51A, T53N, Q55L, S56G, V91T, N92Y, Y94T, P96W, L104V
As for B3, the binding result in assay [1] and in assay [2] was “no binding (tested: 1000 nM)” in each case.

B4: 004S-A11 (Fab, V domains shown)
VH: QVQLVQSGAEVKKPGSSVKVSCKASGGTFSSYAISWVRQAPGQGLEWMGRIIPILGIANYAQKFQGRVTITADESTSTAYMELSSLRSEDTAVYYCARESVNNYYYMDVWGKGTTVTVSS
VL: not shown
Take B4: the binding result in assay [1] and in assay [2] was “no binding (tested: 1000 nM)” in each case.

B5: 005S-E09 (Fab, V domains shown)
VH: EVQLVQSGGGLVQPGGSLRLSCAASGFNLRRYNMNWVRQAPGKGLEWVSRISNSGSLVYYADSVKGRFTISRDNSKNTLYLQMNSLRAEDTAVYYCARDADSSGYYRYDAFDIWGQGTMVTVSS
VL: EIVLTQSPATLSVSPGERATLSCRASQSVSSNLAWYQQKPGQAPRLLIYDASNRATGIPARFSGSGSGTEFTLTISSLQSEDFAVYYCQQRNNWLYTFGQGTKVEIKR
On to B5, for which the binding result in assay [1] and in assay [2] was “no binding (tested: 1000 nM)” in each case.

B6: 005S-A07 (Fab, V domains shown)
VH: QVQLVQSGAEVKKPGSSVKVSCKASGFTFTGSAVQWVRQAPGQGLEWVGGILPIYGTTKYAQKFQGRVTITADESTSTAYMELSSLRSEDTAVYYCARGARLYGFDYWGQGTLVTVSS
VL: B5 VL with S31R, D50G, N53T, N92S, L95P, Y96I, K103R, V104L
In the case of B6, the binding result in assay [1] and in assay [2] was “no binding (tested: 1000 nM)” each time.

B7: 014S-B06 (Fab, V domains shown)
VH: EVQLVQSGGGLVKPGGSLRLSCAASGFTFSSYSMNWVRQAPGKGLEWVSYIENDGSITTYADSVKGRFTISRDDSKNTLYLQMNSLKTEDTAVYYCARAPYYYGSGSLFRLDYWGQGTLVTVSS
VL: not shown
With B7, the binding result in assay [1] and in assay [2] was “no binding (tested: 1000 nM)” each time.

B8: 005S-D11 (Fab, V domains shown)
VH: QVQLVQSGAEVKKPGASVKVSCKASGYTFTNNFMHWVRQAPGQGLEWMGWINPNSGDTKFAPKFQGRVTMTRDTSTSTVYMELSSLRSEDTAVYYCAREANYDILTGYIRPDAFDIWGQGTTVTVSS
VL: EIVLTQSPATLSVSPGERATLSCRASQSLRSKLAWYQQKPGQAPRLLIYGASTRATGIPARFSGSGSGTEFTLTISSLQSEDFAVYYCQQYANSPWTFGPGTKVDIKR
On to B8, for which the binding result in assay [1] and in assay [2] was “no binding (tested: 1000 nM)” in each case.

B9: 005S-D08 (Fab, V domains shown)
VH: EVQLVESGGGLVQPGGSLRLSCAASGFAFSSHWMHWVRQAPGKGLEWVSAIDGSGGSTYYADSVKGRFTISRDNSKNTLYLQMNSLRAEDTAVYYCARDRQLGWAHWYFDLWGRGTLVTVSS
VL: not shown
Turning to B9, the binding result in assay [1] and in assay [2] was “no binding (tested: 1000 nM)” throughout.

B10: 005S-B11 (Fab, V domains shown)
VH: QVQLVQSGAEVKKPGASVKVSCKASGYTFTSYDINWVRQAPGQGLEWMGGFDPEDGETIYAQKFQGRVTMTRDTSTSTVYMELSSLRSEDTAVYYCAKAGDWGLYGMDVWGQGTMVTVSS
VL: DIQMTQSPSSLSASVGDRVTITCRASQSISRWLAWYQQKPGKAPKLLIYAASSLQSGVPSRFSGSGSGTDFTLTISSLQPEDFATYYCQQTNTFPFTFGPGTKVDIKR
B10: the binding result in assay [1] and in assay [2] was “no binding (tested: 1000 nM)” throughout.

B11: 005S-E12 (Fab, V domains shown)
VH: QVQLVQSGAEVKKPGASVKVSCKASGYIFTDYYMHWVRQAPGQGLEWMGVIFPVYPTPDYAQKFQGRVTMTRDTSTSTVYMELSSLRSEDTAVYYCARGGSTGYYGMDVWGQGTTVTVSS
VL: B10 VL with I29V, S30G, L33M, T91A
B11: the binding result in assay [1] and in assay [2] was “no binding (tested: 1000 nM)” in each case.

B12: 005S-B07 (Fab, V domains shown)
VH: QVQLVQSGAEVKKPGASVKVSCKASGFTFTSSAVQWVRQAPGQGLEWMGWMNPNSGNTGYAQKFQGRVTMTRDTSTSTVYMELSSLRSEDTAVYYCARGRGQQWLTGYYGMDVWGQGTTVTVSS
VL: B2 VL with A50G, T51A, Q89L, V91D, N92Y, S93N, P96F, Q100P, L104V, E105D
With B12, the binding result in assay [1] and in assay [2] was “no binding (tested: 1000 nM)” throughout.

B13: 014S-B04 (Fab, V domains shown)
VH: QVQLVQSGAEVKKPGASVKVSCKASGYIFTDYYMHWVRQAPGQGLEWMGWMNPNSGNTGYAQKFQGRVTMTRDTSTSTVYMELSSLRSEDTAVYYCARGGSRYDFWSGHWYFDLWGRGTLVTVSS
VL: B2 VL with S31N, A32Y, T51A, T53S, V91S, N92Y, Y94T, P96F, L104V
B13: the binding result in assay [1] and in assay [2] was “no binding (tested: 1000 nM)” in each case.

B14: 005S-H10 (Fab, V domains shown)
VH: QVQLVQSGAEVKKPGSSVKVSCKASGGAFSTSSISWVRQAPGQGLEWVGRIIPVLGTANYAQKFQGRVTITADESTSTAYMELSSLRSEDTAVYYCAKGGWRSSFDPWGQGTLVTVSS
VL: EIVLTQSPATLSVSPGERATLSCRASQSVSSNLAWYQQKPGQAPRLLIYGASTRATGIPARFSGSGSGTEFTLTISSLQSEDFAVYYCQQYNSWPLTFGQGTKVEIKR
Consider B14, for which the binding result in assay [1] and in assay [2] was “no binding (tested: 1000 nM)” each time.

B15: 004S-A12 (Fab, V domains shown)
VH: QVQLVQSGAEVKKPGASVKVSCKASGYTFTNNFMHWVRQAPGQGLEWMGRINPNSGGTNYAQKFQGRVTMTRDTSTSTVYMELSSLRSEDTAVYYCARGQGYSSGWYRGDAFDIWGQGTTVTVSS
VL: not shown
On to B15, for which the binding result in assay [1] and in assay [2] was “no binding (tested: 1000 nM)” in each case.

B16: 017S-B09 (VHH)
VHH: AVQQVESGGGLVQPGGSLRLSCAASGFTLDYYAISWFRQAPGKKRELVADITSGGSTNYADSVKGRFTISRDNAKNTIYLQMNSLKPEDTAVYFCNAVTYNGYTIWGQGTQVTVSS
As for B16, the binding result in assay [1] and in assay [2] was “no binding (tested: 1000 nM)” each time.

B17: 004S-F10 (Fab, V domains shown)
VH: EVQLVESGGGLVQPGGSLRLSCAASGFTFSDHYMSWVRQAPGKGLEWVALVGYDGSQQFYGESVKGRFTISRDNSKNTLYLQMNSLRAEDTAVYYCNTGIPMLYWGQGTLVTVSS
VL: not shown
With B17, the binding result in assay [1] and in assay [2] was “no binding (tested: 1000 nM)” each time.

B18: 014S-A07 (Fab, V domains shown)
VH: EVQLVESGGGLVKPGGSLRLSCAASGFTFSNAQMSWVRQAPGKGLEWVSAIGTGGGTYYADSVKGRFTISRDDSKNTLYLQMNSLKTEDTAVYYCAREGSYYDWYFDLWGRGTLVTVSS
VL: EIVLTQSPATLSVSPGERATLSCRASQNIGSRLAWYQQKPGQAPRLLIYGASNRASGIPARFSGSGSGTEFTLTISSLQSEDFAVYYCQQYNHWPPLFTFGPGTKVDIKR
On to B18, for which the binding result in assay [1] and in assay [2] was “no binding (tested: 1000 nM)” in each case.
